Reference: the supplement of paper PMC7877785
± gives the uncertainty stated by the source.

Assay: self-splicing fitness, log relative to wild type (ln ratio); higher = more splicing; Tetrahymena group I intron in knt gene, E. coli kanamycin selection, DiMSum; sequences stand for … in CUCUCU…GGAGGGAAAAGUUAUCAGGCAUGCACCUGGUAGCUAGUCUUUAAACCAAUAGAUUGCAUCGGUUUAAAAGGCAAGACCGUCAAAUUGCGGGAAAGGGGUCAACAGCCGUUCAGUACCAAGUCUCAGGGGAAACUUUGAGAUGGCCUUGCAAAGGGUAUGGUAAUAAGCUGACGGACAUGGUCCUAACCACGCAGCCAAGUCCUAAGUCAACAGAUCUUCUGUUGAUAUGGAUGCAGUUCACAGACUAAAUGUCGGUCGGGGAAGAUGUAUUCUUCUCAUAAGAUAUAGUCGGACCUCUCCUUAAUGGGAGCUAGCGGAUGAAGUGAUGCAACACUGGAGCCGCUGGGAACUAAUUUGUAUGCGAAAGUAUAUUGAUUAGUUUUGGAGUACUCGUGGUCG
How it was run: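 Library with all eight P1ex-region intron nucleotides randomised, intron inside the knt kanamycin-resistance gene on pET-22b(+), in E. coli BL21(DE3). Cells grew overnight at 37°C or 30°C on LB agar with or without 25 μg/mL kanamycin (plus 100 μg/mL carbenicillin, 50 μM IPTG, 0.2% rhamnose), in six replicate transformations. Pooled colonies were amplicon-sequenced on Illumina HiSeq 2500. DiMSum fitness is the error-weighted combination of wild-type-normalised replicate fold changes, kanamycin versus none.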

Sequence | self-splicing fitness (ln) (30 °C) | self-splicing fitness (ln) (37 °C)
GGUAAGCAAUAUUACGUUUU | -2.02 ± 0.12 | -0.929 ± 0.14
GGUCAGCAAUAUUACGAAAG | -1.78 ± 0.084 | -1.22 ± 0.12
GGUCAGCAAUAUUACGAAGA | -1.72 ± 0.18 | -0.837 ± 0.19
GGUCAGCAAUAUUACGACGA | -0.308 ± 0.072 | 0.501 ± 0.11
GGUCAGCAAUAUUACGAUCG | 0.0558 ± 0.12 | 0.097 ± 0.16
GGUCAGCAAUAUUACGAUGA | -0.626 ± 0.087 | 0.0621 ± 0.099
GGUCAGCAAUAUUACGAUGU | -0.0366 ± 0.056 | 0.261 ± 0.076
GGUCAGCAAUAUUACGCAAG | -1.92 ± 0.17 | -0.453 ± 0.16
GGUCAGCAAUAUUACGCACA | -0.667 ± 0.082 | 0.412 ± 0.12
GGUCAGCAAUAUUACGCCUA | -0.826 ± 0.12 | -0.243 ± 0.14
GGUCAGCAAUAUUACGCGAG | -1.93 ± 0.13 | -0.499 ± 0.13
GGUCAGCAAUAUUACGCGGA | -2.04 ± 0.47 | -2.17 ± 0.41
GGUCAGCAAUAUUACGCUAC | -3.55 ± 0.28 | -2.17 ± 0.16
GGUCAGCAAUAUUACGCUAU | -1.32 ± 0.092 | -1.03 ± 0.096
GGUCAGCAAUAUUACGGAUG | -0.625 ± 0.095 | -0.309 ± 0.097
GGUCAGCAAUAUUACGGCAG | -0.557 ± 0.081 | -0.497 ± 0.11
GGUCAGCAAUAUUACGGCUA | 0.0808 ± 0.098 | 0.494 ± 0.12
GGUCAGCAAUAUUACGGGAA | -1.5 ± 0.16 | -0.702 ± 0.15
GGUCAGCAAUAUUACGGGGC | -4.04 ± 0.33 | -1.11 ± 0.4
GGUCAGCAAUAUUACGUAUA | -1.7 ± 0.18 | -0.369 ± 0.18

Sequence | self-splicing fitness (ln) (30 °C) | self-splicing fitness (ln) (37 °C)
GGUCAGCAAUAUUACGUAUU | -0.159 ± 0.055 | 0.511 ± 0.071
GGUCAGCAAUAUUACGUCAU | -0.37 ± 0.088 | 0.00388 ± 0.12
GGUGAGCAAUAUUACGAACU | -2.18 ± 0.42 | –
GGUGAGCAAUAUUACGACCG | -0.141 ± 0.11 | 0.778 ± 0.19
GGUGAGCAAUAUUACGACGU | -0.578 ± 0.13 | -0.013 ± 0.15
GGUGAGCAAUAUUACGAGAC | -2.82 ± 0.33 | -2.01 ± 0.46
GGUGAGCAAUAUUACGAGUG | -2.19 ± 0.41 | -2.55 ± 0.27
GGUGAGCAAUAUUACGCACA | -1.07 ± 0.15 | -0.679 ± 0.17
GGUGAGCAAUAUUACGCCAC | -1.24 ± 0.44 | –
GGUGAGCAAUAUUACGCCCU | -1.66 ± 0.41 | –
GGUGAGCAAUAUUACGCUAA | -3.69 ± 0.35 | -1.78 ± 0.21
GGUGAGCAAUAUUACGCUCU | -3.87 ± 0.42 | -2.42 ± 0.41
GGUGAGCAAUAUUACGCUUG | -3.71 ± 0.29 | -3.44 ± 0.33
GGUGAGCAAUAUUACGGUGG | -3.06 ± 0.26 | -2.88 ± 0.32
GGUGAGCAAUAUUACGUUCA | – | -1.92 ± 0.47
GGUGAGCAAUAUUACGUUGG | -3.52 ± 0.32 | -0.982 ± 0.36
GGUUAGCAAUAUUACGACUA | 0.135 ± 0.11 | 0.423 ± 0.14
GGUUAGCAAUAUUACGACUG | -0.729 ± 0.1 | -0.796 ± 0.12
GGUUAGCAAUAUUACGAGUU | -1.87 ± 0.15 | -0.221 ± 0.12
